Data published in US20130281659.

Tests used:
[1] = target: K48C, K63C-linked branched Ub trimer
[2] = target: K6C, K48C-linked branched Ub trimer
[3] = target: K11C, K48C-linked branched Ub trimer

Protein | DUB-catalyzed hydrolysis of Ub trimer, SDS-PAGE and western blot [1] | DUB-catalyzed hydrolysis of Ub trimer, SDS-PAGE and western blot [2] | DUB-catalyzed hydrolysis of Ub trimer, SDS-PAGE and western blot [3]
AMSH (protein) MSDHGDVSLPPEDRVRALSQLGSAVEVNEDIPPRRYFRSGVEIIRMASIYSEEGNIEHAFILYNKYITLFIEKLPKHRDYKSAVIPEKKDTVKKLKEIAFPKAEELKAELLKRYTKEYTEYNEEKKKEAEELARNMAIQQELEKEKQRVAQQKQQQLEQEQFHAFEEMIRNQELEKERLKIVQEFGKVDPGLGGPLVPDLEKPSLDVFPTLTVSSIQPSDCHTTVRPAKPPVVDRSLKPGALSNSESIPTIDGLRHVVVPGRLCPQFLQLASANTARGVETCGILCGKLMRNEFTITHVLIPKQSAGSDYCNTENEEELFLIQDQQGLITLGWIHTHPTQTAFLSSVDLHTHCSYQMMLPESVAIVCSPKFQETGFFKLTDHGLEEISSCRQKGFHPHSKDPPLFCSCSHVTVVDRAVTITDLR | the presence of a Ub appendage at position 48 does not influence cleavage of the K63C-linkage as indicated by the formation of Ub2 and Ub upon hydrolysis of the K48C, K63C-linked trimer | – | –
A20-OTU (protein) LVALKTNGDGNCLMHATSQYMWGVQDTDLVLRKALFSTLKETDTRNFKFRWQLESLKSQEFVETGLCYDTRNWNDEWDNLIKMASTDTPMARSGLQYNSLEEIHIFVLCNILRRPIIVISDKMLRSLESGSNFAPLKVGGIYLPLHWPAQECYRYPIVLGYDSHHFVPLVTL | A20-OTU cleaved the K48C-linkage in K11C, K48C and K48C, K63C-linked trimers | the same linkage remained intact in the K6C, K48C-linked trimer | A20-OTU cleaved the K48C-linkage in K11C, K48C and K48C, K63C-linked trimers
IsoT (protein) MAELSEEALLSVLPTIRVPKAGDRVHKDECAFSFDTPESEGGLYICMNTFLGFGKQYVERHFNKTGQRVYLHLRRTRRPKEEDPATGTGDPPRKKPTRLAIGVEGGFDLSEEKFELDEDVKIVILPDYLEIARDGLGGLPDIVRDRVTSAVEALLSADSASRKQEVQAWDGEVRQVSKHAFSLKQLDNPARIPPCGWKCSKCDMRENLWLNLTDGSILCGRRYFDGSGGNNHAVEHYRETGYPLAVKLGTITPDGADVYSYDEDDMVLDPSLAEHLSHFGIDMLKMQKTDKTMTELEIDMNQRIGEWELIQESGVPLKPLFGPGYTGIRNLGNSCYLNSVVQVLFSIPDFQRKYVDKLEKIFQNAPTDPTQDFSTQVAKLGHGLLSGEYSKPVPESGDGERVPEQKEVQDGIAPRMFKALIGKGHPEFSTNRQQDAQEFFLHLINMVERNCRSSENPNEVFRFLVEEKIKCLATEKVKYTQRVDYIMQLPVPMDAALNKEELLEYEEKKRQAEEEKMALPELVRAQVPFSSCLEAYGAPEQVDDFWSTALQAKSVAVKTTRFASFPDYLVIQIKKFTFGLDWVPKKLDVSIEMPEELDISQLRGTGLQPGEEELPDIAPPLVTPDEPKGSLGFYGNEDEDSFCSPHFSSPTSPMLDESVIIQLVEMGFPMDACRKAVYYTGNSGAEAAMNWVMSHMDDPDFANPLILPGSSGPGSTSAAADPPPEDCVTTIVSMGFSRDQALKALRATNNSLERAVDWIFSHIDDLDAEAAMDISEGRSAADSISESVPVGPKVRDGPGKYQLFAFISHMGTSTMCGHYVCHIKKEGRWVIYNDQKVCASEKPPKDLGYIYFYQRVAS | IsoT efficiently processed all three trimers as evidenced by Western blot analysis | IsoT efficiently processed all three trimers as evidenced by Western blot analysis | IsoT efficiently processed all three trimers as evidenced by Western blot analysis
